# ± gives the standard deviation of the averaged measurements.
# Assays:
# MCF7 = experiment: percentage of EdU-negative (G0-arrested) nuclei per well, 72 h; higher = more G0 arrest; conditions: reference: sequence is the full UniProt precursor, the tested protein was the secreted form or ectodomain
# hTERT-HMEC = experiment: as above; conditions: reference: sequence is the full UniProt precursor, the tested protein was the secreted form or ectodomain
# [1] = protein concentration 0.0175 µM
# [2] = protein concentration 0.0225 µM
# [3] = protein concentration 0.0238325 µM
# [4] = protein concentration 0.238325 µM
# [5] = protein concentration 0.0257143 µM
# [6] = protein concentration 0.257143 µM
# [7] = protein concentration 0.0215 µM
# 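Also: secreted proteins added to cultured cells, EdU pulse at the end, nuclei found by Hoechst imaging, EdU status from nuclear versus surrounding ring intensity ratio, PBS as neutral control.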
sequence,measurement,setting,value
MLLRGVLLALQALQLAGALDLPAGSCAFEESTCGFDSVLASLPWILNEEGHYIYVDTSFGKQGEKAVLLSPDLQAEEWSCLRLVYQITTSSESLSDPSQLNLYMRFEDESFDRLLWSAKEPSDSWLIASLDLQNSSKKFKILIEGVLGQGNTASIALFEIKMTTGYCIECDFEENHLCGFVNRWNPNVNWFVGGGSIRNVHSILPQDHTFKSELGHYMYVDSVYVKHFQEVAQLISPLTTAPMAGCLSFYYQIQQGNDNVFSLYTRDVAGLYEEIWKADRPGNAAWNLAEVEFSAPYPMEVIFEVAFNGPKGGYVALDDISFSPVHCQNQTELLFSAVEASCNFEQDLCNFYQDKEGPGWTRVKVKPNMYRAGDHTTGLGYYLLANTKFTSQPGYIGRLYGPSLPGNLQYCLRFHYAIYGFLKMSDTLAVYIFEENHVVQEKIWSVLESPRGVWMQAEITFKKPMPTKVVFMSLCKSFWDCGLVALDDITIQLGSCSSSEKLPPPPGECTFEQDECTFTQEKRNRSSWHRRRGETPTSYTGPKGDHTTGVGYYMYIEASHMVYGQKARLLSRPLRGVSGKHCLTFFYHMYGGGTGLLSVYLKKEEDSEESLLWRRRGEQSISWLRALIEYSCERQHQIIFEAIRGVSIRSDIAIDDVKFQAGPCGEMEDTTQQSSGYSEDLNEIEY [Q7Z304],percentage of EdU-negative,MCF7; [1],28.1 ± 1.3%
same,percentage of EdU-negative,MCF7; protein concentration 0.175 µM,31.9 ± 1.8%
same,percentage of EdU-negative,hTERT-HMEC; [1],5.68 ± 0.56%
same,percentage of EdU-negative,hTERT-HMEC; protein concentration 0.175 µM,8.11 ± 0.92%
MAASRWARKAVVLLCASDLLLLLLLLPPPGSCAAEGSPGTPDESTPPPRKKKKDIRDYNDADMARLLEQWEKDDDIEEGDLPEHKRPSAPVDFSKIDPSKPESILKMTKKGKTLMMFVTVSGSPTEKETEEITSLWQGSLFNANYDVQRFIVGSDRAIFMLRDGSYAWEIKDFLVGQDRCADVTLEGQVYPGKGGGSKEKNKTKQDKGKKKKEGDLKSRSSKEENRAGNKREDL,percentage of EdU-negative,MCF7; [2],27.3 ± 3.2%
same,percentage of EdU-negative,MCF7; protein concentration 0.225 µM,27.3 ± 1%
same,percentage of EdU-negative,hTERT-HMEC; [2],5.03 ± 0.66%
same,percentage of EdU-negative,hTERT-HMEC; protein concentration 0.225 µM,11 ± 0.91%
MLPCLVVLLAALLSLRLGSDAHGTELPSPPSVWFEAEFFHHILHWTPIPNQSESTCYEVALLRYGIESWNSISNCSQTLSYDLTAVTLDLYHSNGYRARVRAVDGSRHSNWTVTNTRFSVDEVTLTVGSVNLEIHNGFILGKIQLPRPKMAPANDTYESIFSHFREYEIAIRKVPGNFTFTHKKVKHENFSLLTSGEVGEFCVQVKPSVASRSNKGMWSKEECISLTRQYFTVTNVIIFFAFVLLLSGALAYCLALQLYVRRRKKLPSVLLFKKPSPFIFISQRPSPETQDTIHPLDEEAFLKVSPELKNLDLHGSTDSGFGSTKPSLQTEEPQFLLPDPHPQADRTLGNREPPVLGDSCSSGSSNSTDSGICLQEPSLSPSTGPTWEQQVGSNSRGQDDSGIDLVQNSEGRAGDTQGGSALGHHSPPEPEVPGEEDPAAVAFQGYLRQTRCAEEKATKTGCLEEESPLTDGLGPKFGRCLVDEAGLHPPALAKGYLKQDPLEMTLASSGAPTGQWNQPTEEWSLLALSSCSDLGISDWSFAHDLAPLGCVAAPGGLLGSFNSDLVTLPLISSLQSSE,percentage of EdU-negative,MCF7; [3],27.3 ± 1.9%
same,percentage of EdU-negative,MCF7; [4],25.3 ± 2.5%
same,percentage of EdU-negative,hTERT-HMEC; [3],5.02 ± 0.64%
same,percentage of EdU-negative,hTERT-HMEC; [4],5.96 ± 0.77%
MERVQPLEENVGNAARPRFERNKLLLVASVIQGLGLLLCFTYICLHFSALQVSHRYPRIQSIKVQFTEYKKEKGFILTSQKEDEIMKVQNNSVIINCDGFYLISLKGYFSQEVNISLHYQKDEEPLFQLKKVRSVNSLMVASLTYKDKVYLNVTTDNTSLDDFHVNGGELILIHQNPGEFCVL,percentage of EdU-negative,MCF7; [5],23.4 ± 0.97%
same,percentage of EdU-negative,MCF7; [6],27.27 ± 0.14%
same,percentage of EdU-negative,hTERT-HMEC; [5],5.74 ± 1.2%
same,percentage of EdU-negative,hTERT-HMEC; [6],5.19 ± 1.2%
MTPILTVLICLGLSLGPRTHVQAGHLPKPTLWAEPGSVITQGSPVTLRCQGGQETQEYRLYREKKTALWITRIPQELVKKGQFPIPSITWEHAGRYRCYYGSDTAGRSESSDPLELVVTGAYIKPTLSAQPSPVVNSGGNVILQCDSQVAFDGFSLCKEGEDEHPQCLNSQPHARGSSRAIFSVGPVSPSRRWWYRCYAYDSNSPYEWSLPSDLLELLVLGVSKKPSLSVQPGPIVAPEETLTLQCGSDAGYNRFVLYKDGERDFLQLAGAQPQAGLSQANFTLGPVSRSYGGQYRCYGAHNLSSEWSAPSDPLDILIAGQFYDRVSLSVQPGPTVASGENVTLLCQSQGWMQTFLLTKEGAADDPWRLRSTYQSQKYQAEFPMGPVTSAHAGTYRCYGSQSSKPYLLTHPSDPLELVVSGPSGGPSSPTTGPTSTSGPEDQPLTPTGSDPQSGLGRHLGVVIGILVAVILLLLLLLLLFLILRHRRQGKHWTSTQRKADFQHPAGAVGPEPTDRGLQWRSSPAADAQEENLYAAVKHTQPEDGVEMDTRSPHDEDPQAVTYAEVKHSRPRREMASPPSPLSGEFLDTKDRQAEEDRQMDTEAAASEAPQDVTYAQLHSLTLRREATEPPPSQEGPSPAVPSIYATLAIH [A0A0B4J1W1],percentage of EdU-negative,MCF7; [7],23.2 ± 2.5%
same,percentage of EdU-negative,MCF7; protein concentration 0.215 µM,25.3 ± 0.95%
same,percentage of EdU-negative,hTERT-HMEC; [7],4.85 ± 0.58%
same,percentage of EdU-negative,hTERT-HMEC; protein concentration 0.215 µM,5.72 ± 0.22%

# Reference: the supplement of paper PMC11316812
